What was measured:
Test in all cases: BLI (Octet), F on anti-HIS tip, 20 nM mAb
[1] = target: RSV F protein mutant pXCS735 (RSV A2, UniProt P03420 26-109)
[2] = target: RSV F protein mutant pXCS776 (RSV A2, UniProt P03420 26-109)
[3] = target: RSV F protein mutant pXCS749 (RSV A2, UniProt P03420 26-109)
[4] = target: RSV F protein mutant pXCS878 (RSV A2, UniProt P03420 26-109)
[5] = target: RSV F protein mutant pXCS875 (RSV A2, UniProt P03420 26-109)
[6] = target: RSV F protein mutant pXCS805 (RSV A2, UniProt P03420 26-109)
[7] = target: RSV F protein mutant pXCS804 (RSV A2, UniProt P03420 26-109)
[8] = target: RSV F protein mutant pXCS873 (RSV A2, UniProt P03420 26-109)
[9] = target: RSV F protein mutant pXCS897 (RSV A2, UniProt P03420 26-109)
[10] = target: RSV F protein mutant pXCS811 (RSV A2, UniProt P03420 26-109)
[11] = target: RSV F protein mutant pXCS839 (RSV A2, UniProt P03420 26-109)
[12] = target: RSV F protein mutant pXCS876 (RSV A2, UniProt P03420 26-109)
[13] = target: RSV F protein mutant pXCS874 (RSV A2, UniProt P03420 26-109)
DS-Cav1 = DS-Cav1 (UniProt P03420 26-513)

B1: MPE8 (antibody, V domains shown)
VH: EVQLVESGGGLVKPGGSLRLSCAASGFTFSSYSMNWVRQAPGKGLEWVSSISASSSYSDYADSAKGRFTISRDNAKTSLFLQMNSLRAEDTAIYFCARARATGYSSITPYFDIWGQGTLVTVSS
VL: QSVVTQTPSVSGAPGQRVTISCTGSSSNIGAGYDVHWYQQLPGTAPKLLIYDNNNRPSGVPDRFSASKSGTSASLAITGLQAEDEADYYCQSYDRNLSGVFGTGTKVTVL
notes: also called MPEG
- Response (nm shift) [1]: 0.375 nm
- Response (nm shift) [2]: 0.127 nm
- Response (nm shift) [3]: 0.206 nm

B2: AM22 (antibody, V domains shown)
VH: QVQLVQSGAEVKKPGATVKVSCKISGHTLIKLSIHWVRQAPGKGLEWMGGYEGEVDEIFYAQKFQHRLTVIADTATDTVYMELGRLTSDDTAVYFCGTLGVTVTEAGLGIDDYWGQGTLVTVSS
VL: EIVLTQSPGTLSLSPGERATLSCRASQIVSRNHLAWYQQKPGQAPRLLIFGASSRATGIPVRFSGSGSGTDFTLTINGLAPEDFAVYYCLSSDSSIFTFGPGTKVDFK
- Response (nm shift) [4]: 0.324 nm
- Response (nm shift) [5]: 0.205 nm
- Response (nm shift) [6]: 0.173 nm
- Response (nm shift) [7]: 0.267 nm
- Response (nm shift) [8]: 0.192 nm
- Response (nm shift) [9]: 0.406 nm
- Response (nm shift) [10]: 0.322 nm
- Response (nm shift) [11]: 0.39 nm
- Response (nm shift) [12]: 0.268 nm
- Response (nm shift) [13]: 0.444 nm
- Response (nm shift) (DS-Cav1): 0.469 nm

Source: patent US20230218738A1 (Pfizer, published 2023)
